Reference: patent US20230076063

Tests used:
[1] = tested on: MamA DNA methyltransferase (Mycobacterium tuberculosis); assay: cell_activity; details: SMRT sequencing kinetics; mostly fully methylated reads
[2] = tested on: MamB DNA methyltransferase (Mycobacterium tuberculosis); assay: cell_activity; details: SMRT sequencing kinetics

Row | Substance | activity (mean SMALR native score) [1] | activity (mean SMALR native score) [2]
1 | CTGGAG (double strand) [MamA target motif sites] | 2.14 | –
2 | MamB target motif sites | – | 2.19
